Results on two molecules are retold here after patent publication US20210299283A1 (SANFORD BURNHAM PREBYS MEDICAL DISCOVERY INSTITUTE, published 2021).

Primed or numbered codes have the meaning given here. Where no end group is shown, it is not given here. [ ]: non-standard residue; d: D form. Ahx = NCCCCCC(=O)O; FAM″ = fluorescein

Assay [1] addresses T1, CTGF, endogenous human (U251 astrocytoma cell lysate; human AD brain sections) (human, UniProt P29279 27-349, limits assumed).
T1 construct: Native protein in a cell lysate, on cells or in tissue sections; Identified by LC-MS/MS against the Uniprot database; also called CCN2; connective tissue growth factor
T1 sequence (looked up): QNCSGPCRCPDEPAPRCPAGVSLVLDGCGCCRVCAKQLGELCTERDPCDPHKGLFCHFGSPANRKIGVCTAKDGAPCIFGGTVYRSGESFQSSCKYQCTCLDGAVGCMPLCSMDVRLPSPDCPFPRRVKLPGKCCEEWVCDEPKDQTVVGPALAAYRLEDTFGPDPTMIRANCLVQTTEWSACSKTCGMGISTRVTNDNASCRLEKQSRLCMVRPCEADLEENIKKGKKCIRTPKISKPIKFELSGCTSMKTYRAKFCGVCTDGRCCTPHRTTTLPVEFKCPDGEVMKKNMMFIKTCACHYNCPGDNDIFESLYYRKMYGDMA
Description: DAG-AgNP binding to cultured U251 cells, fluorescence microscopy. The method, then: FIG. 7 is a graphical representation showing quantity of DAG-coated silver nanoparticles (DAG-AgNPs) binding to human astrocytoma U251 cells. Cultured U251 cells were incubated with DAG-AgNPs alone, in the presence of free non-labeled control peptide, or an excess of free, non-labeled DAG (both at 200 μM), for 1 hour at 37° C. Nanoparticle binding was quantified from fluorescence micrographs using ImageJ™ software. Scale bar, 20 μm.
Cell binding experiments on U251 cells and hiPSCs were with done using peptide conjugated AgNP. U251 cells were cultured in a 96-well plate. The cells were blocked with 200 μl of 10% FCS in HBSS (Hanks' Balanced Salt Solution from Gibco) for 30 min at 37° C. Following that, DAG-AgNPs (0.5 nM concentration diluted in HBSS) alone or in the presence of free non-labeled peptide (200 μM) were incubated on the cells for 1 hour at 37° C. After washing the unbound AgNP with HBSS three times, the plates were imaged with fluorescent microscopy by looking at intrinsic emission from the FAM tag on the peptide. hiPSCs were cultured in 48 well plate and similar protocol as described above was followed, with the exception that AgNP concentration for incubation was kept at 0.15 nM. Nanoparticle binding was quantified from fluorescence micrographs using ImageJ™ software.

Assay [2] deals with T1, CTGF, endogenous human (U251 …). Description: affinity chromatography of U251 cell lysate on biotin-DAG magnetic particles, control peptide wash, elution with 1 mM free DAG, LC-MS/MS. How it is done: For identifying DAG binding proteins, the human glioblastoma astrocytoma cell line U251 was lysed in PBS containing 200 mM n-octyl-beta-D-glucopyranoside and protease inhibitor cocktail (Roche) as described previously with slight modifications. The clarified lysates were loaded on to Sera-Mag magnetic particles (GE Healthcare Lifesciences, USA) coated with biotin-DAG, and incubated overnight with rotation at 4° C. The magnetic beads were washed with wash buffer followed by additional washing with 0.5 mM control peptide ([…]; SEQ ID NO: 103) to remove non-specifically bound proteins. The bound proteins were eluted with 1 mM free DAG peptide. The eluted factions were pooled, their protein concentration determined by using bicinchoninic acid (BCA) protein assay (Pierce) and the samples were digested using the Filter-aided Sample Preparation (FASP) method. Finally, the digested samples were dried, desalted and subjected to LC-MS/MS analysis at the Sanford Burnham Prebys Medical Discovery Institute's Proteomics Core facility. All mass spectra were analyzed with MaxQuant™ software version 1.5.0.25. The MS/MS spectra were searched against the Uniprot™ protein sequence database (version July 2014).

B1: DAG-conjugated silver nanoparticles (FAM-cys-x-DAG-NH2 on AgNPs) (peptide)
peptide: {FAM″}-C[Ahx]CDAGRKQKC-NH2
modifications: also: conjugated via the added Cys thiol to maleimide-PEG on silver nanoparticles
notes: Many copies of the peptide on silver nanoparticles of about 35 nm; also called DAG-AgNP; DAG-AgNPs
As to B1, the binding result in assay [1] is “binds”.

B2: DAG peptide (CDAGRKQKC), labelled synthetic cyclic peptide (peptide)
peptide: CDAGRKQKC-NH2
modifications: not fully specified (bridges); also: fluorescein (FAM) or biotin tag at the N-terminus, described as a cyclic peptide, ring not given here
notes: also called FAM-DAG; FAM-labeled DAG
Turning to B2, the binding result in assay [2] is on record as “binds”.
